Values belong to the molecule of their own block, whether it stands above or below them.
Assays:
[1] = target: MBP-RAMP1.24-111-(GS)5-CLR.29-144-H6 (human) (UniProt O60894); experiment: fluorescence polarisation
[2] = target: MBP-RAMP3.25-111-(GS)5-CLR.29-144-H6 (human) (UniProt O60896); experiment: fluorescence polarisation
[3] = target: MBP-RAMP2.55-140[L106R]-(GS)5-CLR.29-144-H6 (human) (UniProt O60895); experiment: fluorescence polarisation
[4] = target: RAMP3:CLR full-length receptor complex (AM2 receptor) (human) (UniProt O60896)
[5] = target: RAMP2:CLR full-length receptor complex (AM1 receptor) (human) (UniProt O60895)
[6] = target: RAMP1:CLR full-length receptor complex (CGRP receptor) (human) (UniProt O60894)
[7] = target: T1, MBP-RAMP1.24-111-(GS)5-CLR.29-144-H6 (human), O60894; experiment: fluorescence polarisation
T1 chain: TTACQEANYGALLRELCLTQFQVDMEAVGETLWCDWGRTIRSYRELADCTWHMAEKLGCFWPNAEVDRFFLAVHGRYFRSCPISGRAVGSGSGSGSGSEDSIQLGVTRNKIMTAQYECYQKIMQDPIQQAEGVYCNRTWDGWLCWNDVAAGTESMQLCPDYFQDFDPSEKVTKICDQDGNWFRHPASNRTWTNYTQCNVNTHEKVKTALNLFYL

RAMP2:CLR full-length receptor complex (AM1 receptor) (human), sequence (O60895 43-175, chain 1 of 2): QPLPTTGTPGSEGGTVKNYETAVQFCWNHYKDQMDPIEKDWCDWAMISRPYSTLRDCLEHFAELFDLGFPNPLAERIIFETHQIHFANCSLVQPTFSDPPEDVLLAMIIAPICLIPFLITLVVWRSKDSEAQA
RAMP2:CLR full-length receptor complex (AM1 receptor) (human), sequence (Q16602 23-461, chain 2 of 2, further chain): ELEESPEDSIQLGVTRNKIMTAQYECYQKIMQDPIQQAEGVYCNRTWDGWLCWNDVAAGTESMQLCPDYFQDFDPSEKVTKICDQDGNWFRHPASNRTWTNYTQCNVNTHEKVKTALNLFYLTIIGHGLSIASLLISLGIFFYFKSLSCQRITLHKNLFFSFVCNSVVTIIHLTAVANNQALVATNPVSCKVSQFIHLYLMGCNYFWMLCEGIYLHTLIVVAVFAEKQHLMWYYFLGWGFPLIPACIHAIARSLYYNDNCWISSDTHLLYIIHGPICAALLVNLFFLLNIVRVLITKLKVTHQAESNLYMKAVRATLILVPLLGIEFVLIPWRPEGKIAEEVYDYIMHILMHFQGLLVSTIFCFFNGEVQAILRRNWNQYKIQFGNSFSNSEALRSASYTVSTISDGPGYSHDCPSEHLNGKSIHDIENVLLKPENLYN
RAMP3:CLR full-length receptor complex (AM2 receptor) (human), sequence (O60896 24-148, chain 1 of 2): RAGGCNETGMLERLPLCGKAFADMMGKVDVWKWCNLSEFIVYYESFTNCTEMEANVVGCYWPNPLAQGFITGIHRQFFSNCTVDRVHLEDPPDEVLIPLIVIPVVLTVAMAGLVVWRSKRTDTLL
RAMP3:CLR full-length receptor complex (AM2 receptor) (human), sequence (Q16602 23-461, chain 2 of 2, further chain): as the sequence (Q16602 23-461, chain 2 of 2, further chain) above
RAMP1:CLR full-length receptor complex (CGRP receptor) (human), sequence (O60894 27-148, chain 1 of 2): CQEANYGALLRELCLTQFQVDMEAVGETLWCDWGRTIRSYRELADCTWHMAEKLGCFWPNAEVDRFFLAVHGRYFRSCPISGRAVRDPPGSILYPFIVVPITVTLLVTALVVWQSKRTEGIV
RAMP1:CLR full-length receptor complex (CGRP receptor) (human), sequence (Q16602 23-461, chain 2 of 2, further chain): as the sequence (Q16602 23-461, chain 2 of 2, further chain) above

- fold decrease in affinity against S45R/K46L/S48G/Q50W [1]: 10 fold
- fold decrease in affinity against S45R/K46L/S48G/Q50W [2]: 10 fold
- fold decrease in affinity against S45R/K46L/S48G/Q50W [3]: 10 fold
Molecule: AM(37-52) S45R/K46A/S48G/Q50W (peptide)

- cAMP antagonism in COS-7 cells; estimated receptor residence time [4]: 11 h
- cAMP antagonism in COS-7 cells; estimated receptor residence time [5]: 5.2 h
- cAMP antagonism in COS-7 cells; estimated receptor residence time [6]: 12.5 h
Molecule: CGRP(8-37) N31D/S34P/K35W/A36S (peptide)

- pKI [7]: 6.08
Molecule: GPAGRQDSAPVDPSSPWSY (modifications not checked) [AM2/IMD H45W]

More lines, now with the values behind:

Molecule: AM(37-52) S45R/K46L/Q50W (peptide)
- fold increase in affinity against K46L/Q50W [1]: 5 fold
- fold increase in affinity against K46L/Q50W [2]: 5 fold
- fold increase in affinity against K46L/Q50W [3]: 17 fold

Molecule: AM S48G (peptide)
- fold increase in affinity against wild-type AM [3]: 5 fold

Molecule: AM(37-52) S48G/Q50W (peptide)
- fold increase in affinity against Q50W [1]: 6 fold
- fold increase in affinity against Q50W [2]: 6 fold
- fold increase in affinity against Q50W [3]: 13 fold

Molecule: AM(22-52) S48G/Q50W (peptide)
- antagonism of cAMP signalling in COS-7 cells, apparent KB (Gaddum/Schild) [5]: 80 pM

Molecule: AM2/IMD S43G/H45W (peptide)
- pKI [1]: 4.75

Reference: doi:10.1101/2020.02.28.970301
